One block for each binder: values may come before it.
Experiments:
Details in all cases: both partners purified
[1] = biological target: T1, reduced recombinant GapC1 (cytosolic NAD-dependent glyceraldehyde-3-phosphate dehydrogenase) from A. thaliana (A. thaliana, UniProt P25858 1-338); assay: reflectance interferometry (RIf); GapC1 (or the control mCitrine) immobilised via NHS on a PEG surface; Trx-h3 injected at different concentrations; 20 mM HBS-buffer (100 mM NaCl, 0.01% Triton X-100, pH 7.5) with 2 mM DTT; KD from equilibrium binding signals by Scatchard plot
T1 construct: GapC1, cytosolic NAD-dependent glyceraldehyde-3-phosphate dehydrogenase, Arabidopsis thaliana, At3g04120; Used as analyte on VDAC3 (pre-treated with 2 mM DTT) and immobilised via NHS in buffer with 2 mM DTT for Trx-h3; also called reduced GapC1; GAPDH; source: desalted before use; pre-treated with 2 mM DTT
T1 sequence (P25858 whole entry): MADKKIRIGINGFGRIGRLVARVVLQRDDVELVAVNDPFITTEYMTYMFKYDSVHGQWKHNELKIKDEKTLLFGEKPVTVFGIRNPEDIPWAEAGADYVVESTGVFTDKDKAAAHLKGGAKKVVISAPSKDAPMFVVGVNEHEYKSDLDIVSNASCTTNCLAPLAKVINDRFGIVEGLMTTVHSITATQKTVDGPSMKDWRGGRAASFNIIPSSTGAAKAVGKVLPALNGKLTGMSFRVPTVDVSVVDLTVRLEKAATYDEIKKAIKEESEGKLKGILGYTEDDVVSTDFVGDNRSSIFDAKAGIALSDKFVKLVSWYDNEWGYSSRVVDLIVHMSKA

[2] = biological target: T2, oxidized recombinant GapC1 from A. thaliana (pretreated with 0.5 mM H2O2 + 0.5 mM GSH) (A. thaliana, UniProt P25858 1-338, oxidized by pretreatment with 0.5 mM H2O2 + 0.5 mM GSH; modified residues not stated for this sample); assay: reflectance interferometry (RIf); VDAC3 in a polymer-supported DOPC membrane on the chip; GapC1 pre-treated with 0.5 mM H2O2 + 0.5 mM GSH (oxidized) injected at different amounts in a flow chamber; rinsing with HBS buffer; association and dissociation phases fitted separately; protein-free lipid membrane as negative control
T2 construct: GapC1, cytosolic NAD-dependent glyceraldehyde-3-phosphate dehydrogenase, Arabidopsis thaliana, At3g04120; Same recombinant protein as m1, oxidised in vitro; also called oxidized GapC1; source: desalted before use; pre-treated with 0.5 mM H2O2 + 0.5 mM GSH
T2 sequence (P25858 whole entry): as above

[3] = biological target: T1, reduced recombinant GapC1 (cytosolic …); assay: reflectance interferometry (RIf); VDAC3 in a polymer-supported DOPC membrane on the chip; GapC1 pre-treated with 2 mM DTT (reduced) injected at different amounts in a flow chamber; rinsing with HBS buffer; association and dissociation phases fitted separately; protein-free lipid membrane as negative control

Kd [1]: 40000 nM
B1: recombinant thioredoxin Trx-h3 from A. thaliana (natural protein, UniProt Q42403 1-118, looked up)
chain: MAAEGEVIACHTVEDWTEKLKAANESKKLIVIDFTATWCPPCRFIAPVFADLAKKHLDVVFFKVDVDELNTVAEEFKVQAMPTFIFMKEGEIKETVVGAAKEEIIANLEKHKTVVAAA
notes: Thioredoxin h3 (Trx-h3), Arabidopsis thaliana

Kd [2]: 556 nM
Kd [3]: 236 nM
B2: recombinant voltage-dependent anion-selective channel VDAC3 from A. thaliana, reconstituted in a lipid bilayer (natural protein, UniProt Q9SMX3 1-274, looked up)
chain: MVKGPGLYTEIGKKARDLLYRDYQGDQKFSVTTYSSTGVAITTTGTNKGSLFLGDVATQVKNNNFTADVKVSTDSSLLTTLTFDEPAPGLKVIVQAKLPDHKSGKAEVQYFHDYAGISTSVGFTATPIVNFSGVVGTNGLSLGTDVAYNTESGNFKHFNAGFNFTKDDLTASLILNDKGEKLNASYYQIVSPSTVVGAEISHNFTTKENAITVGTQHALDPLTTVKARVNNAGVANALIQHEWRPKSFFTVSGEVDSKAIDKSAKVGIALALKP
notes: VDAC3, mitochondrial outer membrane voltage-dependent anion-selective channel 3, Arabidopsis thaliana; cDNA cloned into pCold I with SacI and XbaI; Protein:lipid 1:1000 in DOPC; formed a polymer-supported membrane on the RIf chip; The tag is inferred from the vector; also called AtVDAC3
